Values quoted from earlier work in paper PMC10813780.

Target: TLR4 (Homo sapiens) (UniProt O00206)
Chain of UniProt O00206 (O00206 24-839): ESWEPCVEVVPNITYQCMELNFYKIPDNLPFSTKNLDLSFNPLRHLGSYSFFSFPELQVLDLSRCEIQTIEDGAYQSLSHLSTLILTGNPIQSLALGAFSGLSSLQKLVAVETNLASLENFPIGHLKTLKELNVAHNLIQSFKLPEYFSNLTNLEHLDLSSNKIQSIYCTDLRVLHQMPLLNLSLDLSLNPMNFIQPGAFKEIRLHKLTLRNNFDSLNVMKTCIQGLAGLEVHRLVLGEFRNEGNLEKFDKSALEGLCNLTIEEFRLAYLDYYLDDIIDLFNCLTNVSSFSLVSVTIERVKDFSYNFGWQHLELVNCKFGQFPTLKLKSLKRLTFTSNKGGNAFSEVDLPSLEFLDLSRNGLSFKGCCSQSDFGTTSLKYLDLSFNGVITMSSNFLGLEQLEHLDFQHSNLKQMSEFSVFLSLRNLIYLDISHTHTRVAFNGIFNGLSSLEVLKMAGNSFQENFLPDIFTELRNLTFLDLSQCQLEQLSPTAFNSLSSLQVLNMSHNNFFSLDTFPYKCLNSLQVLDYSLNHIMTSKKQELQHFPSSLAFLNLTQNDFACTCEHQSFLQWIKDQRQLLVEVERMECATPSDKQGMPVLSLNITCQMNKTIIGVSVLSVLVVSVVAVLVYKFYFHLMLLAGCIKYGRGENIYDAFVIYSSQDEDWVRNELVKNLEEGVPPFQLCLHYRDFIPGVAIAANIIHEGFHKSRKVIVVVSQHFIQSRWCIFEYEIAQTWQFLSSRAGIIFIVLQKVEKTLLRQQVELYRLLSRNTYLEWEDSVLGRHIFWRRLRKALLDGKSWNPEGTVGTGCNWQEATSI

In the case of API5 (from UniProt Q9BZZ5), the Kd is listed as 430 nM.
